Experimental data taken from US20230192820A1 (published 2023).

B1: MAb362 IgA1 (monomeric) (antibody, V domains shown)
VH: QVQLVESGGGVVQPGRSLRLSCAASGFSFSSYGMHWVRQAPGKGLEWVAVIWYDGSDKYYADSVKGRFTISRDNSKNTLYLQLNSLRAEDTAIYYCARERYFDWIFDFWGQGTLVTVSS
VL: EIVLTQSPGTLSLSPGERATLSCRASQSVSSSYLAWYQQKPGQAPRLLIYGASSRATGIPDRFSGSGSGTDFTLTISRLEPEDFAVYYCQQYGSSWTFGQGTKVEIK
B2: MAb362 IgG1 (antibody, V domains shown)
VH: B1 VH
VL: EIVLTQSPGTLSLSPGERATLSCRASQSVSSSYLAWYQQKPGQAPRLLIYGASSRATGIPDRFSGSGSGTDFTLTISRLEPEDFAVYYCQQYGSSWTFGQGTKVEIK

Target: stabilized trimer of the full ectodomain of SARS-CoV-2 spike protein (residues 1-1208, NIAID VRC7471) (SARS-CoV-2, UniProt P0DTC2 14-1208)

Row | Binder | Kd [nM]
1 | B1 | 0.17
2 | B2 | 27
